From the supplement of paper PMC9170038

Tested on: K4 kissing-loop RNA reporter
Assay: apparent KD of K4 kissing-loop reporter; higher = weaker reporter binding
Conditions: Eterna round: R107
Description: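 RNA-MaP round R107: designed RNA switches with theophylline, tryptophan, arginine or FMN aptamers are transcribed on-chip within common flanks. They are titrated with a labelled K4 kissing-loop RNA reporter in RNA-MaP buffer (100 mM Tris pH 7.5, 80 mM KCl, 4 mM MgCl2), without ligand or with the indicated ligand. Median apparent KD per design.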

[1] = input ligand: theophylline 20 uM
[2] = input ligand: tryptophan 2.4 mM
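Note: bound reporter read as fluorescence of individual clusters on recovered sequencing chips by microscopy, with normalized cluster intensities fitted with a binding model.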

Row | Sequence | apparent KD of K4 kissing-loop reporter (input ligand: FMN 200 uM) [nM] | apparent KD of K4 kissing-loop reporter (input ligand: arginine 13.2 mM) [nM] | apparent KD of K4 kissing-loop reporter (input ligand: none) [nM] | apparent KD of K4 kissing-loop reporter [1] [nM] | apparent KD of K4 kissing-loop reporter [2] [nM]
1 | UCGAACGAUGGAAGGAGCGCUCGUCAGUCCUGCGAGUGAUGUUCGUGGGUAAAUAGUCGCGAGCAGGUAGGUCGCCAUCUUGAGC [Indiermaar] | 130 | 120 | 131 | 128 | 125
2 | UCGAUGGUCAGCGAUACCAGCCCAGUGAUGUUGGGCACAUGGUUGCGGAAAAUCCCAUUGGGCCCUUGGCAGCGCUUGCAUGGGU [Titiquesan] | 130 | 122 | 123 | 136 | 116
3 | UCGCACCUGUGGGCGAGGCCUAUAAUUGUCAAGGAUAUAGAUCAUUCUAGAAGGUGACACUUCGCGAGUGAUGUUCGGGAAAUGC [theeternabot_sameState_KL_FMN_A_8] | 386 | 212 | 273 | 245 | 179
4 | UCGCUCGAGUAAGGAUAUCAAUAUCAAAGGUCGUAGUGAUGUUAUACCAGGCCAAUUUGGCGGUAGUGAGAAGGUACUAGCAGUU [theeternabot_sameState_KL_FMN_B_38] | 1090 | 294 | 688 | 461 | 405
5 | UCUCGGGCCAGUGAUGUUGGCGGCAAGUGGCGAGGACCGGUACGGCCGCCACUCGGCGCAGCAGCGGAGUGAUGUUUCGUGAGUA [Same State Tryptophan A GF 16] | 297 | 1240 | 1230 | 387 | 675
6 | UCUGCUGUAUAUGAUACCAGCAGUGAGAGACCAGAAGUAUAGUGAUGUUAUAUGAGAGAAUGCCCUUGGCAGCGUGUGCGGGUGG [SSTheophylB.Z] | 85.4 | 87.6 | 67.5 | 84.7 | 61.6
7 | UGACAUUGCUCAGAUACCAGACCUGAGGAUCACCCUGGUGCCAAACGUACAAUAAUAAAUGUCCCUUGGCAGCUGAGCAAUGUCU [TheoBX 14] | 77.8 | 27.6 | 44.9 | 139 | 52.4
8 | UGACAUUGCUCAGAUACCAGUCAUGAGGAUCACCCAUGGGCCAAACGUACAAUAAUAAAUGACCCUUGGCAGCUGAGCAAUGUCU [TheoBX 14] | 64.5 | 36.9 | 55.4 | 135 | 62.8
9 | UGACUACAAAAGGAAUAAUCCUAGUGAUGUUAGGAUAUGCUGAUAAGCAGAAGGAACGGAGAUCGAAAGAUCUCAUAUGUAGUCU [whbob_Ex_FMNA__2th192] | 141 | 87.4 | 82.8 | 98.5 | 87.4
10 | UGACUACAGGAAUAAUAAUCCUAGUGAUGUUAGGAUAUGCUGAUAAGCAGAAGGAACUGAGAUCGAAAGAUCUCAAAAGUAGUCU [FmnAX 28 Mat Inspired #SwitchBubble #StaticStem #K4Early] | 139 | 89.3 | 92.9 | 106 | 96.7
11 | UGACUGGACUGAAGGAGCGCUAAAACUCCUAGUGAUGUUGGGAAAUAGAGACAAAGUCUCAAGCAGGUAGGUCGCAGUCUAGUCU [ArgBS 23 #SwitchBubble #StaticStem] | 166 | 200 | 163 | 197 | 169
12 | UGACUGGACUGAAGGAGCGGGCGAGACAAAGUCUCGAACUCCUAGUGAUGUUAGGAAAUAACCCAGGUAGGUCGCAGUCUAGUCU [ArgBS 7 #SwitchBubble #StaticStem #DoubleMagnet] | 149 | 104 | 128 | 136 | 137
13 | UGACUGGAUGGAAGGAGCGCUAAACUCCUAGUGAUGUUAGGGAUAUGAGGCAAAGCCUUGAGGCAGGUAGGUCGCCAUCUAGUCU [FiskerMod 25 - Jieux - Same State - Arginine B] | 191 | 117 | 131 | 141 | 145
14 | UGACUUGCCUGAGGAUAUCUAGGAUAUCCAUAAAAGGAAAUAAUAGUUCAGUGAUGUUGGAGAAGGAGAGAAGGCAGGUAAGUCU [KL-XFMN-B18 #DoubleAptamer #SwitchBubble] | 671 | 514 | 493 | 737 | 448
15 | UGAGGAGAAUAUGAUACCAGCAGAGAGAGAGAGGAAGUAUAGUGAUGUUAUAUGAGAUAAUGCCCUUGGCAGCAUAAGAAGAAGG [#19 K4 Theophylline B Same State] | 163 | 104 | 111 | 178 | 145
16 | UGAUACCAGACGGCCGCCACUCCUGCAGUCAAAGACUGCUAAAAGGAAAUCGUCCAGUGAUGUUGGAGGACCGGGUCUGGUAUCU [TrypBX 14 #SwitchBubble #Palindromic #StaticStem] | 647 | 738 | 1150 | 685 | 372
17 | UGAUACCAGACGGCCGCCACUCCUGCAGUCAAAGACUGCUAAAGGAAAUUCGUCCAGUGAUGUUGGAGGACCGGGUCUGGUAUCU [TrypBX 13 #SwitchBubble #Palindromic #StaticStem] | 1100 | 753 | 1070 | 810 | 480
18 | UGAUACCAGACUGAUACCAGCAAGUGAUGUUUGUUGAUCUAUGCAGUCAAAGACUGCUCUUGCCCUUGGCAGCAGUCUGGUAUCU [TheoBX 28 #SwitchBubble #StaticStem] | 762 | 640 | 1040 | 409 | 777
19 | UGAUACCAGACUGAUACCAGCUAGUGAUGUUAGCUGAAACAGGAACAGGCAAAGCCUGCUAGCCCUUGGCAGCAGUCUGGUAUCU [TheoBX 11 #SwitchBubble #StaticStem] | 91.5 | 90.6 | 96.9 | 152 | 85.3
20 | UGAUAGGACAGAAGGAGCGGAAGUGAUGUUUCCAAAAGGAGAGGUCGACAAAGUCGACCCUUCCAGGUAGGUCGCUGUCCUAUCU [ArgBX 10 #Palindromic #SwitchBubble #StaticStem] | 95.3 | 83.5 | 79.1 | 105 | 86.7
